This note sets out measurements from article PMC10435448, “A RAD51–ADP double filament structure unveils the mechanism of filament dynamics in homologous recombination”.

This data set concerns the target hRAD51 wild-type (Homo sapiens, UniProt Q06609 1-339). Nature of the data set: cryo-EM structure (3.1 A); 1 mM ADP, 5 mM CaCl2, 2.5 mM MgCl2; ssDNA density weak and diffuse; EMSA: 35 mM Tris-HCl pH 7.5, 1 mM DTT, 10 mM MgCl2, 100 ng/ul BSA, 50 mM KCl, 2 mM ADP, 37 C 10 min, 2% agarose TAE at 4 C; cryo-EM: 35 mM Tris-HCl pH 7.5, 108. As to conditions: protein: recombinant; tags: none stated (pET11, untagged purification); chain copies: 10; single strand.

hRAD51 wild-type, sequence (Q06609 whole entry): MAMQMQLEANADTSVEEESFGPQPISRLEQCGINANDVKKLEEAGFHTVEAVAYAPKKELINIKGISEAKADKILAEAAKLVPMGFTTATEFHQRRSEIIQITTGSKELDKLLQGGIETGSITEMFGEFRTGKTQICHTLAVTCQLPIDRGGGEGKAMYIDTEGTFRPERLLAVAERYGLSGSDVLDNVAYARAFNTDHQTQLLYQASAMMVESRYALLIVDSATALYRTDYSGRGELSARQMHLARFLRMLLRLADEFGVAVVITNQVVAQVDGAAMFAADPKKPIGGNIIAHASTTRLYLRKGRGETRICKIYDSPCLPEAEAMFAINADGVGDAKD

B1: Oligo 1 (80 nt ssDNA), unlabeled (ssDNA)
DNA: TTATGTTCATTTTTTATATCCTTTACTTTATTTTCTCTGTTTATTCATTTACTTATTTTGTATTATCCTTATCTTATTTA
With B1, the binding result is reported as “binds”.
